Substitutions are numbered along the chain they refer to.

Assay type in all cases: biochemical
The nature of data set [1]: HTP-analysis of supernatants pretreated with base (MUGal hydrolysis). To be noted: activity of the variant/activity of Rd7BB (SEQ ID NO: 44); challenge at pH 7.5. In short, it runs like this: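 GLA variants secreted from yeast INVSc1; culture supernatants pre-incubated with McIlvaine buffer pH 7.0–8.2 or 200 mM bicarbonate pH 9.1–9.7 at 37° C. for 1–18 h. Residual activity: MUGal (4 mM stock) hydrolysis at pH 4.3–4.8, 37° C., 30–180 min, carbonate quench; fluorescence Ex 355/Em 448 nm.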

Data set [2] in a line: HTP-analysis of yeast culture supernatants, no challenge (MUGal hydrolysis). To be noted: activity of the variant/activity of Rd7BB (SEQ ID NO: 44). The method in brief:
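GLA variants expressed in yeast INVSc1, secreted into SD-Ura broth over 66-84 h at 30° C; clarified supernatants tested without challenge. Supernatant mixed with McIlvaine buffer pH 4.8 and 2 mM MUGal (citrate/KCl, pH 4.6), 37° C for 30-180 min, carbonate-quenched, fluorescence Ex 355/Em 448 nm.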

Data set [3] is described as follows: HTP-analysis of supernatants pretreated with acid (MUGal hydrolysis). To be noted: activity of the variant/activity of Rd7BB (SEQ ID NO: 44); challenge at pH 3.5. The method in brief:
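Supernatants from INVSc1 yeast secreting GLA variants were challenged at 37° C. for 1-3 h in McIlvaine buffer at pH 3.3-4.3. Residual activity was then measured on 4 mM MUGal substrate stock at pH 4.8 with citrate buffer pH 4.3, over 30-180 min at 37° C. Reactions were quenched with sodium carbonate and read by fluorescence (Ex 355/Em 448 nm).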

B1: 647 (protein)
chain: LDNGLARTPTMGWLHWERFMCNLDCQEEPDSCISEKLFMEMAERMVSEGWKDAGYEYLCIDDCWMAPQRDSEGRLQADPQRFPHGIRQLANYVHSIGLKLGIYADVGNKTCAGFPGSFGYYDIDAQTFADWGVDLLKFDGCYCDSLENLADGYKHMSLALNRTGRSIVYSCEWPLYMWPFQKPNYTEIRQYCNHWRNFADIDDSWASIKSILDWTSRNQERIVDVAGPGGWNDPDMLVIGNFGLSWNQQVTQMALWAIMAAPLFMSNDLRHISPQAKALLQDKDVIAINQDPLGKQGYQLRKGDNFEVWERPLSGLAWAVAIINRQEIGGPRSYTIAVASLGKGVACNPGCFITQLLPVKRQLGFYNWSSRLKSHINPTGTVLLQLENTMQMSLKDLL
modifications: Synthetic Polypeptide sequence of Variant No. 346 of mature Human GLA
Regarding B1, the “Relative Activity of GLA Variants After Challenge at pH 7.5” value (“Relative Activity … at pH 7.5” below) in data set [1] was “− (<0.5 relative activity to Rd7BB (SEQ ID NO: 44))”. In addition, the “Relative Activity of GLA Variants After No Challenge (NC)” value in data set [2] is recorded as “− (<0.5 relative activity to Rd7BB (SEQ ID NO: 44))”. Also, the “Relative Activity of GLA Variants After Challenge at pH 3.5” value (shortened to “Relative Activity … at pH 3.5”) in data set [3] was “− (<0.5 relative activity to Rd7BB (SEQ ID NO: 44))”.

B2: 691 (protein)
chain: LDNGLARTPPMGWLHWERFMCNLDCQEEPDSCISEKLFMEMAERMVTEGWKDAGYEYLCIDDCWMAPQRDSEGRLQADPQRFPHGIRQLANHVHSKGLKLGIYADVGNKTCAGFPGSFGYYDIDAQTFADWGVDLLKFDGCYCDSLENLADGYKHMSLALNRTGRPIVYSCEWPLYMWPFQKPNYTEIRQYCNHWRNFADIDDSWASIKSILDWTSRNQERIVDVAGPGGWNDPDMLVIGNFGLSWDQQVTQMALWAIMAAPLFMSNDLRAISPQAKALLQDKDVIAINQDPLGKQGYQLRKGDNFEVWERPLSGDAWAVAIINRQEIGGPRSYTIPVASLGKGVACNPACFITQLLPVKRQLGFYNWTSRLKSHINPTGTVLLQLENTMQTSLKDLL
modifications: Synthetic Polypeptide sequence of Variant No. 691 of mature Human GLA
As to B2, the “Relative Activity … at pH 7.5” value in data set [1] is given as “+ (>0.5 to 1.5 relative activity over Rd7BB (SEQ ID NO: 44))”. Besides, in data set [2], the “Relative Activity of GLA Variants After No Challenge (NC)” value is “+ (>0.5 to 1.5 relative activity over Rd7BB (SEQ ID NO: 44))”. The “Relative Activity … at pH 3.5” value in data set [3] was “+ (>0.5 to 1.5 relative activity over Rd7BB (SEQ ID NO: 44))”.

B3: 693 (protein)
chain: B2 chain with P10T, W368A
modifications: Synthetic Polypeptide sequence of Variant No. 693 of mature Human GLA
As for B3, the “Relative Activity … at pH 7.5” value in data set [1] was “+ (>0.5 to 1.5 relative activity over Rd7BB (SEQ ID NO: 44))”. Also, the “Relative Activity of GLA Variants After No Challenge (NC)” value in data set [2] was “+ (>0.5 to 1.5 relative activity over Rd7BB (SEQ ID NO: 44))”. The “Relative Activity … at pH 3.5” value in data set [3] is reported as “+ (>0.5 to 1.5 relative activity over Rd7BB (SEQ ID NO: 44))”.

B4: 649 (protein)
chain: B2 chain with M39E, W246P
modifications: Synthetic Polypeptide sequence of Variant No. 649 of mature Human GLA
Take B4: the “Relative Activity … at pH 7.5” value in data set [1] is given as “+ (>0.5 to 1.5 relative activity over Rd7BB (SEQ ID NO: 44))”. Besides, in data set [2], the “Relative Activity of GLA Variants After No Challenge (NC)” value is “+ (>0.5 to 1.5 relative activity over Rd7BB (SEQ ID NO: 44))”. Further, the “Relative Activity … at pH 3.5” value in data set [3] is on record as “+ (>0.5 to 1.5 relative activity over Rd7BB (SEQ ID NO: 44))”.

B5: 642 (protein)
chain: B2 chain with E43D, A261G, N305L, W368A
modifications: Synthetic Polypeptide sequence of Variant No. 642 of mature Human GLA
Turning to B5, the “Relative Activity … at pH 7.5” value in data set [1] is “+ (>0.5 to 1.5 relative activity over Rd7BB (SEQ ID NO: 44))”. Further, the “Relative Activity of GLA Variants After No Challenge (NC)” value in data set [2] was “+ (>0.5 to 1.5 relative activity over Rd7BB (SEQ ID NO: 44))”. Further, the “Relative Activity … at pH 3.5” value in data set [3] is “+ (>0.5 to 1.5 relative activity over Rd7BB (SEQ ID NO: 44))”.

B6: 643 (protein)
chain: B2 chain with R325S
modifications: Synthetic Polypeptide sequence of Variant No. 643 of mature Human GLA
As for B6, in data set [1], the “Relative Activity … at pH 7.5” value was “+ (>0.5 to 1.5 relative activity over Rd7BB (SEQ ID NO: 44))”. Moreover, in data set [2], the “Relative Activity of GLA Variants After No Challenge (NC)” value is listed as “+ (>0.5 to 1.5 relative activity over Rd7BB (SEQ ID NO: 44))”. Besides, in data set [3], the “Relative Activity … at pH 3.5” value is listed as “− (<0.5 relative activity to Rd7BB (SEQ ID NO: 44))”.

B7: 645 (protein)
chain: B2 chain with P10T, P174S
modifications: Synthetic Polypeptide sequence of Variant No. 645 of mature Human GLA
On to B7, for which the “Relative Activity … at pH 7.5” value in data set [1] was “− (<0.5 relative activity to Rd7BB (SEQ ID NO: 44))”. Moreover, in data set [2], the “Relative Activity of GLA Variants After No Challenge (NC)” value is reported as “+ (>0.5 to 1.5 relative activity over Rd7BB (SEQ ID NO: 44))”. The “Relative Activity … at pH 3.5” value in data set [3] is listed as “+ (>0.5 to 1.5 relative activity over Rd7BB (SEQ ID NO: 44))”.

B8: 648 (protein)
chain: B2 chain with M39E, A261G, W368A
modifications: Synthetic Polypeptide sequence of Variant No. 648
For B8, in data set [1], the “Relative Activity … at pH 7.5” value was “+ (>0.5 to 1.5 relative activity over Rd7BB (SEQ ID NO: 44))”. Besides, in data set [2], the “Relative Activity of GLA Variants After No Challenge (NC)” value is on record as “+ (>0.5 to 1.5 relative activity over Rd7BB (SEQ ID NO: 44))”. Further, the “Relative Activity … at pH 3.5” value in data set [3] is given as “+ (>0.5 to 1.5 relative activity over Rd7BB (SEQ ID NO: 44))”.

B9: 692 (protein)
chain: B2 chain with P10T, W256L
modifications: Synthetic Polypeptide sequence of Variant No. 692 of mature Human GLA
Take B9: the “Relative Activity … at pH 7.5” value in data set [1] is given as “− (<0.5 relative activity to Rd7BB (SEQ ID NO: 44))”. In addition, the “Relative Activity of GLA Variants After No Challenge (NC)” value in data set [2] is “− (<0.5 relative activity to Rd7BB (SEQ ID NO: 44))”. Also, the “Relative Activity … at pH 3.5” value in data set [3] is reported as “− (<0.5 relative activity to Rd7BB (SEQ ID NO: 44))”.

B10: 651 (protein)
chain: B2 chain
modifications: Synthetic Polypeptide sequence of Variant No. 651 of mature Human GLA
Consider B10, for which the “Relative Activity … at pH 7.5” value in data set [1] is reported as “+ (>0.5 to 1.5 relative activity over Rd7BB (SEQ ID NO: 44))”. For the same molecule, the “Relative Activity of GLA Variants After No Challenge (NC)” value in data set [2] is “+ (>0.5 to 1.5 relative activity over Rd7BB (SEQ ID NO: 44))”. For the same molecule, the “Relative Activity … at pH 3.5” value in data set [3] was “+ (>0.5 to 1.5 relative activity over Rd7BB (SEQ ID NO: 44))”.

B11: 644 (protein)
chain: B2 chain with P10T, L237P
modifications: Synthetic Polypeptide sequence of Variant No. 644 of mature Human GLA
Turning to B11, in data set [1], the “Relative Activity … at pH 7.5” value was “− (<0.5 relative activity to Rd7BB (SEQ ID NO: 44))”. Further, the “Relative Activity of GLA Variants After No Challenge (NC)” value in data set [2] is recorded as “− (<0.5 relative activity to Rd7BB (SEQ ID NO: 44))”. Besides, the “Relative Activity … at pH 3.5” value in data set [3] is listed as “− (<0.5 relative activity to Rd7BB (SEQ ID NO: 44))”.

B12: 646 (protein)
chain: B2 chain with P10T, G113C
modifications: Synthetic Polypeptide sequence of Variant No. 646 of mature Human GLA
Consider B12, for which the “Relative Activity … at pH 7.5” value in data set [1] is “− (<0.5 relative activity to Rd7BB (SEQ ID NO: 44))”. In addition, in data set [2], the “Relative Activity of GLA Variants After No Challenge (NC)” value is given as “− (<0.5 relative activity to Rd7BB (SEQ ID NO: 44))”. In addition, the “Relative Activity … at pH 3.5” value in data set [3] is “− (<0.5 relative activity to Rd7BB (SEQ ID NO: 44))”.

B13: 650 (protein)
chain: B2 chain with R7H
modifications: Synthetic Polypeptide sequence of Variant No. 650 of mature Human GLA
As to B13, the “Relative Activity … at pH 7.5” value in data set [1] is on record as “+ (>0.5 to 1.5 relative activity over Rd7BB (SEQ ID NO: 44))”. For the same molecule, the “Relative Activity of GLA Variants After No Challenge (NC)” value in data set [2] is “+ (>0.5 to 1.5 relative activity over Rd7BB (SEQ ID NO: 44))”. For the same molecule, in data set [3], the “Relative Activity … at pH 3.5” value is “+ (>0.5 to 1.5 relative activity over Rd7BB (SEQ ID NO: 44))”.

Values taken from US11278600B2, “Human alpha-galactosidase variants” (Codexis, Inc., priority 2014, dated 2022).
